Substitutions are numbered along the chain they refer to.

One may read the Kd as the equilibrium constant for the complex coming apart. Read a high Kd as lower affinity. Broadly, the EC50 is the concentration at which the effect is half-maximal. Read a high EC50 as weaker potency.

Test [1] addresses T1, human ABCG2 (UniProt Q9UNQ0 1-655).
T1 chain: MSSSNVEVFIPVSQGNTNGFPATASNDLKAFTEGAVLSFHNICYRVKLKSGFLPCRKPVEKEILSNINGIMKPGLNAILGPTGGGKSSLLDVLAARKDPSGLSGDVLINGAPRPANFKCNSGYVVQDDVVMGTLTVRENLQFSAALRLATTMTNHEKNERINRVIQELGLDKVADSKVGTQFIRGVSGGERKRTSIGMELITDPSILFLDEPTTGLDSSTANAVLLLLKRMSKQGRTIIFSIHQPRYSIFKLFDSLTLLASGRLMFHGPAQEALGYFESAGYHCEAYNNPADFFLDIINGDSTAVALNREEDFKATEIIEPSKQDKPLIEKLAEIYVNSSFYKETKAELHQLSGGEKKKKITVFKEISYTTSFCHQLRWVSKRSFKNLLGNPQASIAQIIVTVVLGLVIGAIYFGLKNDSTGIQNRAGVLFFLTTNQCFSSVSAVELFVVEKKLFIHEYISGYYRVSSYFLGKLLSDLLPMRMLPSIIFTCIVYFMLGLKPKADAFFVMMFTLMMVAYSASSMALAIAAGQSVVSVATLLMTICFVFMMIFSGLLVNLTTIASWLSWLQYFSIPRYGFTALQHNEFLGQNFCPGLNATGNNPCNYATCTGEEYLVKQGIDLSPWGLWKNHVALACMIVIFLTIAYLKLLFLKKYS
Description: FACS binding to 293T.hG2 cells. A general note: In flow cytometry, cells or beads pass a laser one at a time.

The target of test [2] is T2, cynomolgus ABCG2 (Macaca fascicularis) (UniProt Q5MB13 1-654).
T2 chain: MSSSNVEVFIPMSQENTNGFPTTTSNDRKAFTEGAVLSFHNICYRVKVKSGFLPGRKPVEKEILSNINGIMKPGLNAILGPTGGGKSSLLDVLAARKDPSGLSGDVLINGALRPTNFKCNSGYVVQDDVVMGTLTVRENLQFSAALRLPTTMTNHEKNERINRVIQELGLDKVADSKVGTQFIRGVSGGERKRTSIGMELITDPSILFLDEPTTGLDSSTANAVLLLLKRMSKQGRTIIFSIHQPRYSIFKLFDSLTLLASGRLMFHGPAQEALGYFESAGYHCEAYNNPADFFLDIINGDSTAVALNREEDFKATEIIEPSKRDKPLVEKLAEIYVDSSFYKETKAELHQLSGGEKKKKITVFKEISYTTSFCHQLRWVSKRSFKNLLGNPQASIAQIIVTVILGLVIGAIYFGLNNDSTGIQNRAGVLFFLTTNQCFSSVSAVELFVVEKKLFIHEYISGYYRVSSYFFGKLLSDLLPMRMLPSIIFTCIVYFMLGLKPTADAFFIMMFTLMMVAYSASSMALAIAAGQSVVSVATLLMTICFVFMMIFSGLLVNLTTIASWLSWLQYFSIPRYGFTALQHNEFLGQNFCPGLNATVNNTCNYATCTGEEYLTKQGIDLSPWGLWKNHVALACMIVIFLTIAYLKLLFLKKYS
In words: FACS binding to 293T.cG2 cells.

In test [3] the target is T2, cynomolgus ABCG2 (Macaca fascicularis). Description: FACS binding to 293T cells.
Test [4] concerns the target T1, human ABCG2. In words: FACS binding to 293T cells.
Test [5] addresses T2, cynomolgus ABCG2 (Macaca fascicularis). In words: FACS binding to 293T cells.
Test [6] deals with T1, human ABCG2. Description: FACS binding to 293T cells.
Test [7] has as its target T1, human ABCG2. Description: FACS cell binding (MFI).
Test [8] has as its target T2, cynomolgus ABCG2 (Macaca fascicularis). Description: cell binding.
Test [9] addresses T1, human ABCG2. Description: cell binding.

B1: G2.760 rat (antibody, V domains shown)
VH: EVQLVESGGGLVQPGRSMKLSCAASGFTFSKSDMAWVRQAPTKGLKWVASIRYDGGNTYYRDSVRGRFTISRDNAKSTLYLQMDSLRSEDTATYYCSTAKAAISTPSYYVLDAWGQGASVTVSS
VL: DIGMTQSPTSMSKSVGDRVTMNCKASQNVGSNVDWFQQKTGQSPKLLIYKSSNRYTGVPARFTGSGSGTDFTFTISNMQAEDLAVYYCMQSNSYPPTFGGGTKLELK
On to B1, for which the values for the Kd (in the test with human ABCG2 [1]; in [2]) were 3.4 nM and 2.4 nM, respectively.

B2: G2.631 rat (antibody, V domains shown)
VH: EVKLLESGGGLVQSGRSLKLSCAASGFIFSRFYMAWVRQAPRKGLEWVAYISNGAGSTYYRESVKGRFIISRDNAKSTLYLQMDSLRSEDTATYYCTTVAAPWNYVMDGWGQGASVTVSS
VL: NIQITQSPSLLSASVGDRVTLSCKGSQNINNYLAWYQQKLGEAPKLLIYKTNSLHTGIPSRFSGSGSGTDYTLTISSLHSEDLATYYCYQYNNGYTFGAGTKLELK
With B2, the Kd in test [3] worked out at 67.7 nM; with human ABCG2 [4], 4.6 nM; in [5], 15 nM.

B3: G2.629 rat (antibody, V domains shown)
VH: EVQLVESGGGLVQPGRSLKLSCAASGFIFSRFYMAWVRQAPTKGLEWVAYINTGGGTTYYRDSVKGRFTISRDNAKTTLYLQMDSLRSEDTATYYCTTLAAPWNYVMDAWGQGASVTVSS
VL: B2 VL with N1D, I2V, Q3V, I4M, S22T, Y32F, I48T, A99P
For B3, the results for the equilibrium dissociation constant (Kd) (in test [3]; with human ABCG2 [4]) were 540 nM and 50.1 nM, respectively.

B4: G2.333 rat (antibody, V domains shown)
VH: EIQLQESGPGLVKPSQSLSLTCSVTGYTITSGYDWTWLRKFPGNKMEWMGYISYSGFTNYNPSLRSRISISRDTSKNQFFLQLNSVTTEDTATYYCARTRGYNPFPYWGQGTLVTVSS
VL: DIQMTQSPSLLSASVGDRVSLSCKAGRNVNNYLAWYQQKLGKPPKLLIYNSNSLQTGIPSRFSGSGSGTDFTLTISSLQPEDVATYFCQQYNSWTTFGSGTKLEIK
In turn, B4 had a Kd in test [3] of 111 nM.

B5: G2.318 rat (antibody, V domains shown)
VH: B4 VH with I2V, Q3K, Q5L, T36S, L38I, F57W, T99V, P106A
VL: B4 VL with Q3V, S20T, R27Q, V29I, K42E, P43A, S51A
Regarding B5, the Kd in test [3] amounted to 49.8 nM.

B6: G2.758 rat (antibody, V domains shown)
VH: QGTLKESGPGIVQSSHTLSLTCSFSGFSLSTYGMGVSWIRQPSGKGLEWLASVWWNGDTSNNPSLKSRLTVSKDTS
VL: DIQMTQSPPSLSASLGDKVTITCQASQNIYKYIAWYQQKPGKAPRLLIRYTSTLHFGTPSRFSGSGSGRDYSFSISNVESEDIARYYCQQYVKFPNTFGAGTILELK
Regarding B6, the Kd with human ABCG2 [1] came to 17.5 nM; in test [2] it was 107 nM.

B7: G2.757 rat (antibody, V domains shown)
VH: QVTLKESGPGILRPSHTLSLTCSFSGFSLTTYGICVSWIRQPSGKGLEWLANICWEDSKAYNPSLKNRLTISKDTSNNQVFLRIPSVDTADSAIYYCARVFNNYPFPYWGQGTLVTVSS
VL: TQSPPSLSASLGDKVTITCQASQNINKYVAWYQQKPGKAPRLLIRYTSTLESGTPSRFSGSGSWRDYSFSISNVESEDIADYYCLQYVNLWTFGGGTKLELK
As for B7, the values for the Kd (with human ABCG2 [1]; in [2]) were 12.4 nM and 73.5 nM, respectively.

B8: G2_732 (antibody, V domains shown)
VH: VQLKESGPGLVQPSQTLSLTCTVSGLSLTSTGVSWIRQPPGKGLEWMGVIWSNGGTDYNSAIKSRLSISRDTSKSQVFLKMNSLQTEDTAMYFCARAIAPSYIMDAWGQGASVTVSS
VL: DIQMTQSPPSLSASLGDKVTITCQASQNIHKYIAWYRQKPGKPPRLLIRYTSTLQSGTPSRFSGSGSGRDYSFSISNVESEDIASYYCLQYVNLWTFGGGTKLELK
Take B8: the equilibrium dissociation constant (Kd) worked out at 14.8 nM in test [5] and 6.2 nM with human ABCG2 [6].

B9: G2.173 mouse (antibody, V domains shown)
VH: QVQLQQSGADLVRPGASVKLSCTASGFNIKDDYVHWVKQRPEQGLEWIGRIDPANGNTRYAPKFRGKATMTADTSSNTAYLQLSSLTSADTAVYYCSPPLWVGGFAYWGQGTLVTVSS
VL: DVVMTQTPLSLPVSLGDQASISCRSSQSLVHSDVNTYLHWYLQRPGQSPKLLIYKVSNRFSGVPDRFSGSGSGTDFTLKISRVESEDLGIYFCSQTTHVPYTFGGGTKLEIK
In turn, B9 gave an EC50 with human ABCG2 [7] of 17.1 nM.

B10: G2_767 (antibody, V domains shown)
VH: QVQLKESGPGLVQPSQTLSLTCTVSGLSLSSNSVSWIRQPPGKGLEWMGVIWNNGGTDYNSAIKSRLSISRDTSKSQVFLKLSSLQTEDTAMYFCARGYSSYIFDYWGQGVMVTVSS
VL: DIQMTQSPPSLSASLGDKVTITCQSSQNINNYIAWYQQKPGEAPRVLIRYTSTLQSGAPSRFSGSGSWRDYSFTISNVESEDIADYYCLQYVNLWTFGGGTKLEIK
On to B10, for which the equilibrium dissociation constant (Kd) with human ABCG2 [1] is 31.2 nM; in test [2], 1370 nM.

B11: G2.65 mouse (antibody, V domains shown)
VH: QGQMHQSGAELVKPGASVKLSCKTSGFTFNSGYISWLKQKPRQSLEWIAWIYAGTGISNFNQKFTGKAQLTVDTSSSTAYMQLSSLTSADSAIYFCASGARKTLDFWGQGTSVTVSS
VL: DIQMTQSSSYLSVSVGGRVTITCKASDQINYWLAWYQQKPGNAPRLLISGATSLETGVPSRFSGSGSGKDYTLSITSFQTEDVATYYCQQYWTTPYTFGGGTKVEIK
Turning to B11, in the test with human ABCG2 [7], the midpoint of the response, the EC50, lay at 180 nM.

B12: G2.636.hu25 (antibody, V domains shown)
VH: EVQLVESGGGLVQPGGSLRLSCAASGFTFSRFYMAWVRQAPGKGLEWVAHISHGGDTTYYRDSVKGRFTISRDNSKNTLYLQMNSLRAEDTAVYYCTTSAAPWNYVMDGWGQGTLVTVSS
VL: AIQLTQSPSSLSASVGDRVTITCKGSQNINNFLAWYQQKPGKAPKLLIYKTNSLHTGIPSRFSGSGSGTDYTLTISSLQPEDFATYYCYQYNNGYTFGQGTKLEIK
Turning to B12, the results for the EC50 (in [8]; with human ABCG2 [9]) were 87.4 nM and 28.5 nM, respectively.

B13: G2.636.hu47 humanized (antibody, V domains shown)
VH: B12 VH with T114A, L115T
VL: B12 VL with A1D, I21L
Turning to B13, the EC50 in test [8] was 42.6 nM; in the test with human ABCG2 [9], 20.4 nM.

B14: G2.636.hu45 (antibody, V domains shown)
VH: B12 VH with T114A, L115T
VL: B12 VL
As to B14, the values for the EC50 (in test [8]; with human ABCG2 [9]) were 65.3 nM and 18.5 nM, respectively.

B15: G2.636.hu27 (antibody, V domains shown)
VH: B12 VH
VL: B12 VL with A1D, I21L
In the case of B15, the EC50 in test [8] is 38.8 nM; in the test with human ABCG2 [9] it was 23.1 nM.

B16: G2.343 rat (antibody, V domains shown)
VH: SVQLKESGPGLVQPSQTLSLTCTVSGFSLTSNGVSWVRQPPGKGLEWIAAISSGGSTYYNSVLKSRLSISRDTSKSQVFLKMNSLQTEDTAIYFCTRDTYYGYNQIPFVYWGQGTLVTVSS
VL: DVVLAQTPPTLSATIGQSVSISCRSSQSLLHSSGNTYLNWLLQRPGQPPQLLIYLVSRLESRVPNRFSGSGSGTDFTLKISGVEAEDLGVYYCVQSTHAPRTFGGGTKLELK
Regarding B16, the Kd in [3] amounted to 58.4 nM; in the test with human ABCG2 [4], 8.4 nM.

B17: G2.420 rat (antibody, V domains shown)
VH: SVQLMESGPGLVQPSQTLSLTCTVSGFSLNSYNVNWVRQPPGKGLEWIAAISSGGSTYYNSVLKSRLSITRDTSKSQVFLKMNSLQTEDTAMYFCARSGYYSSYMNWGQGVMVTVSS
VL: B16 VL with L4M, A5T, S33T, S61Y, R62G, V94A, P100L, R101N, G105A
As to B17, the Kd in test [3] was 29.9 nM; with human ABCG2 [4] it was 11.1 nM.
